The target in assay [1] is T1, Human MerTK-mouse Fc fusion protein (human, UniProt Q12866 21-499, limits assumed).
T1 construct: also called hMerTK; Human MerTK-mouse Fe fusion protein
T1 sequence (looked up): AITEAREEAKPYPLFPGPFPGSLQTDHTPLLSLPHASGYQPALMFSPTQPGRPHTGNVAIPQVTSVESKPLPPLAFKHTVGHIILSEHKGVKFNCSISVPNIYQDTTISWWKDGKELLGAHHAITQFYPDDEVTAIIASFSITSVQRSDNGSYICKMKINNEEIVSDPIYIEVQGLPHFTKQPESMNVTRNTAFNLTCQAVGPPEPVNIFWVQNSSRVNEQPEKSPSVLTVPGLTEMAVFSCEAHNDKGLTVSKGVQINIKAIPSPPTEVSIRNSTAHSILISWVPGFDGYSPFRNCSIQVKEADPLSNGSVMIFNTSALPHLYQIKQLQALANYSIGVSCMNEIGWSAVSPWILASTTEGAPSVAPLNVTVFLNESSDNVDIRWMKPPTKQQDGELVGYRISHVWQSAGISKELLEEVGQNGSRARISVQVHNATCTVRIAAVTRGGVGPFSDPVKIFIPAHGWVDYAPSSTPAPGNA
The assay can be described thus: FACS blocking: binding of human MerTK-mouse Fc to Jurkat cells overexpressing human Gas6, MFI (AF488). Here is the method:
To evaluate the blocking effects of anti-hMerTK mAbs on hMerTK binding to its ligand hGas6, a receptor blocking assay was set-up. Briefly, Jurkat cells engineered to overexpress human Gas6 were added to the 96-well microplates at a density of 5×10⁴ cells per well. Human MerTK-mouse Fe fusion protein (50 μL/well, […]) and the MerTK chimeric antibodies with a 3-fold serial dilution starting from 120 nM at a volume of 50 μL were added to the 96-well plates and incubated at 4° C. for 30 mins. After washing with FACS buffer, the plates were incubated with diluted Alex Fluor 488 conjugated goat anti-mouse IgG antibody for 30 mins at 4′C. After washing, the plates were analyzed by QuantAnalyzer 16.

Assay [2] concerns the target T2, human MerTK expressed on cells (human, UniProt Q12866 21-999).
T2 construct: whole, on cells; also called CHO-K1-hMerTK; CHO-K1-MerTK
T2 sequence (looked up): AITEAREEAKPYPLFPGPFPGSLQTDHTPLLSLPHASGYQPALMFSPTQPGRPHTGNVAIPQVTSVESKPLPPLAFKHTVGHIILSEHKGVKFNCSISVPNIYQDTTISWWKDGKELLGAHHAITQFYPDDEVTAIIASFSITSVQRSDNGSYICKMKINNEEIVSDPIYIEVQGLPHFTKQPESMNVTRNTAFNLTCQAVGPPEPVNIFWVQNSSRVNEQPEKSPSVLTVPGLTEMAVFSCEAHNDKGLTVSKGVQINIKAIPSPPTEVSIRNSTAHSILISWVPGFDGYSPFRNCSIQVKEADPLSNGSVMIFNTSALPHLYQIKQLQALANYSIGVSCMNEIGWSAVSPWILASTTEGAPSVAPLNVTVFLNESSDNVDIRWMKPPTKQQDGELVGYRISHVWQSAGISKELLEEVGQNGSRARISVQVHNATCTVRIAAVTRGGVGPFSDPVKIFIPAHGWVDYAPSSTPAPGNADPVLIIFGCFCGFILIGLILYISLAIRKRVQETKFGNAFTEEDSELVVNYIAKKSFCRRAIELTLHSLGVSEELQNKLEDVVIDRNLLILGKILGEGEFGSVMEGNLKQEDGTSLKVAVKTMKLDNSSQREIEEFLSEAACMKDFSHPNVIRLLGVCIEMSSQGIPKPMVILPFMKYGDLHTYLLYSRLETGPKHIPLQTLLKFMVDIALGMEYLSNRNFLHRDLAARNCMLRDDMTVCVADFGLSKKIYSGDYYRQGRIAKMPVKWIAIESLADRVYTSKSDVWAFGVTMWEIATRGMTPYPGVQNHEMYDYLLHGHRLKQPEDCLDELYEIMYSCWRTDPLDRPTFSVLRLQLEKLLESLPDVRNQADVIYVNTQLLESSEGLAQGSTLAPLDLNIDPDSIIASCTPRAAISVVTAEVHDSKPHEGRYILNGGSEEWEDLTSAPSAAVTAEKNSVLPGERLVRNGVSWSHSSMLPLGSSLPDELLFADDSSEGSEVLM
The assay can be described thus: FACS on SK-MEL-5 cells expressing human MerTK, geometric mean. Here is the method: (§1) To evaluate the binding properties on MerTK expressed on cells, the chimeric monoclonal antibodies were analyzed for their binding to human melanoma cell line SK-MEL-5 expressing MerTK by FACS analysis. Briefly, SK-MEL-5 cells were firstly incubated with 5-fold serially diluted chimeric mAbs starting at 20 nM at 4° C. for 30 mins. After washing by FACS buffer, the PE conjugated anti-human IgG secondary antibody was incubated with the cell-antibody complex in the wells at 4° C. for 30 mins to detect the antibodies those bound to the cells. The MFI of PE was evaluated by QuantAnalyzer 16.

Assay [3] deals with T2, human MerTK expressed on cells. The assay can be described thus: FACS on CHO-K1 cells overexpressing human MerTK, MFI (PE). As for the experimental part:
To evaluate the binding property to the antigen expressed on the cells, the chimeric monoclonal antibodies were analyzed for their binding to human MerTK overexpressed on CHO-K1 cells by FACS. Briefly, human MerTK overexpressing CHO-K1 (CHO-K1-MerTK) cells were firstly incubated with 5-fold serially diluted mAbs starting at 20 nM at 4° C. for 1 hour. After washing with FACS buffer, the PE conjugated anti-human IgG-Fc secondary antibody was added to each well and incubated at 4° C., for 30 mins. The mean fluorescence intensity (MFI) of PE were evaluated by QuantAnalyzer 16.

Assay [4] shares this target. The assay can be described thus: FACS on SK-MEL-5 cells expressing human MerTK, geometric mean. Here is the method:
as §1
This is another data set of the same source.

The text below walks through data of US20260028422A1 (CONCEPT TO MEDICINE BIOTECH, published 2026).

B1: 252C12B10 chimeric monoclonal antibody (antibody, V domains shown)
VH: QVQLQQPGTELVKPGASVKLSCKTSGYTFTSYWMHWMKQRPGQGLEWLGHINPSTGGSNYNEKFKSKATLTVDKSSNTAYMQLSSLTSEDSAVYYCARPRGFYGYSYWYFDVWGSGTTVTVSS
VL: DIQMTQTTSSLSASLGDRVTISCSASQDINNYLNWYQHKPDGTIKVLIYFTSSLHSGVPSRFSGSGSGTEYSLTISNLEPEDIATYYCQQYSKLPPTFGSGTKLEIK
Regarding B1, in assay [1], the half-maximal inhibitory concentration (IC50) (usually the point on the concentration scale where inhibition reaches its midpoint) came to 0.78 nM. Besides, in assay [2], the EC50 (as a rule, the concentration that produces a half-maximal response) amounted to 0.043 nM and the Top was determined as 4460 Geometric Mean.

B2: 276C2D1 chimeric monoclonal antibody (antibody, V domains shown)
VH: QVQLQQSGPELVKPGASVKLSCKASGYTFTSYDINWVKQRPGLGLEWIGWIYPRDGYTKYNEKFKGKATLAVDTSSSTAYMELHSLTSEDSAVYFCARGYYSNLYYFDYWGQGTTLTVSS
VL: EVVLTQSPPTMAASPGEKITITCSASSSISSNYLHWYQQKPGFSPKLLIYRTSNLASGVPARFSGSGSGTSYSLTIGTMEAEDVATYYCQQGRSIPLTFGAGTKLELK
Regarding B2, in assay [3], the EC50 turned out to be 0.04 nM and the Top was 7750 MFI (PE). In assay [4], the response was half-maximal at 0.044 nM (EC50) and the Top was found to be 6950 Geometric Mean.

B3: 280C6A3 chimeric monoclonal antibody (antibody, V domains shown)
VH: QVQLQQSGPELVKPGASVKLSCKASGYSFTTYDINWVKQRPGQGLEWIGWIYPRDGSTKYNEKFKGKATLTLDTSSNTAYMGLHSLTSEDSAVYFCARGYYDNLYYFDYWGQGTTLTVSS
VL: EIVLTQSPTTMAASPGEKITITCSASSSVSSNYLHWYQQKPGFSPKLLIYRTSNLASGVPARFSGSGSGTSYSLTIGTMEAEDVATYYCQQGRIVPLTFGAGTKLELK
With B3, in assay [3], the midpoint of the response, the EC50, lay at 0.044 nM and the Top is 8310 MFI (PE). In assay [4], this molecule had a half-maximal effective concentration (EC50) of 0.039 nM and a Top of 7490 Geometric Mean.

B4: 300A5A3 chimeric monoclonal antibody (antibody, V domains shown)
VH: QVQLQQSGPELVKPGASVKLSCKASGYTFTTYDINWVKQRPGLGLEWIGWIYPRDGYTKYNEKFKGKATLAVDTSSSTASMELHSLTSEDSAVYFCARGYYDNLYYFDNWGPGTTLTVSS
VL: ENVLTQSPTTVAASPGEKITITCSASSIISSNYLHWYQQKPGFSPKLLIYRTSNLASGVPARFSGSGSGTSYSLTIGTMEAEDAATYYCQQGRSVPLTFGAGTKLELK
For the molecule B4, the figures for the EC50 in assay [3] and in assay [4] were 0.076 nM and 0.074 nM, respectively. The Top was 8350 MFI (PE) in assay [3] and 7490 Geometric Mean in assay [4].

B5: 265F11B5 chimeric monoclonal antibody (antibody, V domains shown)
VH: QVQLQQSGPELVKPGASVRLSCKASGYTFTTYDINWVKQRPGLGLEWIGWIYPRDGYTKYNEKFKGRATLAVDTSSSTAYMELHSLTSEDSAVYFCTRGYYDNLYYFDYWGQGTTLTVSS
VL: EIVLTQSPTTVAASPGEKITITCSASSIISSNYFHWYQQRPGFSPKLLIYRTSNLASGVPARFSGSGSGTSYSLTIGTMEAEDVATYYCQQGRSVPLTFGAGTKLELK
In the case of B5, in assay [3], the response was half-maximal at 0.061 nM (EC50) and the Top was 9460 MFI (PE). In assay [4], this molecule showed an EC50 of 0.048 nM and a Top of 7750 Geometric Mean.

B6: 293C2B7 chimeric monoclonal antibody (antibody, V domains shown)
VH: QVQLQQSGPELVKPGASVKLSCKASGYTFTSYDINWVKQRPGQGLEWIGWIYPRDGYTKYKEKFKGKATLTVDTSSSTAYMELHSLTSEDSAVYFCARGFYSNLYYFDYWGQGTTLTVSS
VL: EIVLTQSPTTMATSPGEKITITCSASSSISSNYLHWYQQKPGFSPKLLIYRTSNLASGVPDRFSGSGSGTSYSLTIGTMEAEDVATYYCQQGRSIPLTFGAGTKLELK
Turning to B6, in assay [3], the EC50 came to 0.064 nM and the Top was 7700 MFI (PE). Besides, in assay [4], a half-maximal response (EC50) required 0.055 nM and the Top was 6960 Geometric Mean.

B7: 247E5A8 chimeric monoclonal antibody (antibody, V domains shown)
VH: DVQLQESGPGLVKPSQSLSLTCSVTGYSITGGYYWTWIRQFPGNKLEWMGYISYDGDNNYNPSLKNRISITRDTSKNQFFLNLNSVTTEDTATYYCAREGGRLRTMDYWGQGTSVTVSS
VL: QIVLTQSPAIMSASPGEKVTITCRASSSVNYMHWFQQKPGTSPKLWIYTTSNLASGVPARFSGSGSGTSYSLTISRMEAEDAATYYCQQRSSYPFTFGSGTKLEIK
In assay [1], B7 showed a half-inhibitory concentration (IC50) of 0.787 nM. Further, in assay [2], the 50% effective concentration (EC50) stood at 0.094 nM and the Top came out at 7160 Geometric Mean.

B8: 254B4D9 chimeric monoclonal antibody (antibody, V domains shown)
VH: QIQLVQSGPELKKPGETVKISCKASGYTFTAYGMSWVKQAPGKGLQWMGWINTYSGVPTYTDDFKGRFAFSLEASASTAFLQINNLKNEDTSTYFCARRAAVVAKYWYFDVWGTGTTVTVSS
VL: DIQMTQSPSSLFASLGGKVIITCKSSQDINKRISWYQHKPGKGPRLLIHSTSSLQPGIPLRFSGSGSGRDYSFSISNLEPEDIATYFCLQYDNLLTFGAGTKLELK
Consider B8, for which, in assay [3], the EC50 was found to be 0.19 nM and the Top is 5630 MFI (PE). In addition, in assay [2], the half-maximal effective concentration (EC50) worked out at 0.18 nM and the Top stood at 4840 Geometric Mean.

B9: 216G3D6 chimeric monoclonal antibody (antibody, V domains shown)
VH: QVTLKESGPGILQPSQTLSLTCSFSGFSLSTSGMGVGWIRQPSGKGLEWLAHIWWDDDKHCNPALKSRLTISKDTSSNQVFLKIASLDTADTATYYCTQMTMTREFAYWGQGTLVTVSA
VL: DIQMTQTISSLSASLGDRVTISCSAGQGISNYLNWYQQKPDGTVKLLIYYTSRLHSGVPSRFSGSGSGTDFSLTISNLEPEDIATYFCQQYSKFPYTFGGGTKLEIK
In assay [1], B9 registered an IC50 of 0.802 nM. In assay [2], this molecule registered an EC50 of 0.17 nM and a Top of 8270 Geometric Mean.

B10: 10F7D9 chimeric monoclonal antibody (antibody, V domains shown)
VH: QIQLVQSGPELKKPGETVKISCKASGYTFTNYGMNWVKQAPGKGLKWMGWINTYTGEPTYADDFKGRFAFSLETSASTAYLQINNLKNEDLATYFCATYGHYAWFAYWGQGTLVTVSA
VL: QIVLSQSPAILSASPGEKVTMTCRASSSVSYMHWYQQKSGSSPKPWIYATSNLASGVPARFSGSGSGTSYSLTISRVEAEDAATYFCQQWGTKPLTFGAGTKLELK
Regarding B10, the IC50 in assay [1] is 0.696 nM. For the same molecule, in assay [2], the EC50 was 0.025 nM and the Top came out at 7070 Geometric Mean.

B11: 85H8D5 chimeric monoclonal antibody (antibody, V domains shown)
VH: QIQLVQSGPELKKPGETVKISCMASGYTFTTHGVTWVKQAPGQGLQRMGWINTYSGVPTYADDFKGRFVFSLETSANTAHLQINNLKNEDTATYFCARTNNYRYFDVWGTGTTVTVSS
VL: QIVLSQSPAILSSSPGEKVTMTCRASSSVSYMHWYQQKPGSSPKPWIYATSNLASGVPARFSGSGSGTSYFLTISRVEAEDAATYYCQQWNTDPPTFGGGTKLEIK
B11 displayed an IC50 in assay [1] of 0.802 nM. In assay [2], this molecule returned an EC50 of 0.022 nM and a Top of 6860 Geometric Mean.
